Values quoted from earlier work in paper PMC3521240.

Target: PTX3 (Homo sapiens) (UniProt P26022)
Sequence (P26022 18-381): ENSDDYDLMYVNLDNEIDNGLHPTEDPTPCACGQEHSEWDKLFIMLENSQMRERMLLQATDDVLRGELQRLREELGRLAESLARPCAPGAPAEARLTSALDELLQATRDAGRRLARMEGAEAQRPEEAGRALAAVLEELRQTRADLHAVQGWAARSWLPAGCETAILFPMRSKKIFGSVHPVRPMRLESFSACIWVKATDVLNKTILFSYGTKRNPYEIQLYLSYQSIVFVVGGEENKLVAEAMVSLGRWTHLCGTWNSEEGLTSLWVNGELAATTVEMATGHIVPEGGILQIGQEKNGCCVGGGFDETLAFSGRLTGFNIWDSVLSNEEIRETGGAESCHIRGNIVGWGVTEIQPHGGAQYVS

Chain of AZU1 (P20160 27-248): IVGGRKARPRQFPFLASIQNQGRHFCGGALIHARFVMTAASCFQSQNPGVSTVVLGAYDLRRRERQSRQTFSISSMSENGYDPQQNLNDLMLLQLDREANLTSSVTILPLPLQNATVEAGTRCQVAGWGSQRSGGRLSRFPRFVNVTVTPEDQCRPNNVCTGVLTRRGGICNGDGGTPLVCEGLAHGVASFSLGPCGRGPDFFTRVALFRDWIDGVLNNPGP

In the case of AZU1 (from UniProt P20160), the Kd is given as 22 nM.
